Test results taken from PMC10543288, “Loss of Bmp2 impairs odontogenesis via dysregulating pAkt/pErk/GCN5/Dlx3/Sp7” (Research Square, 2023).

Biological target: T1, GST full-length Sp7 (mouse, UniProt Q8VI67 1-428)
T1 construct: Sp7 (Osterix, Osx), mouse cDNA, full length; also called GST-Sp7; Osterix
Test: co-IP; purified GST fusion proteins incubated together, immunoprecipitated with anti-Sp7, anti-Dlx3 or anti-GCN5 antibody and protein G agarose beads, IgG as negative control, detected by Western blotting
Conditions: both partners purified

T1 sequence (Q8VI67 whole entry): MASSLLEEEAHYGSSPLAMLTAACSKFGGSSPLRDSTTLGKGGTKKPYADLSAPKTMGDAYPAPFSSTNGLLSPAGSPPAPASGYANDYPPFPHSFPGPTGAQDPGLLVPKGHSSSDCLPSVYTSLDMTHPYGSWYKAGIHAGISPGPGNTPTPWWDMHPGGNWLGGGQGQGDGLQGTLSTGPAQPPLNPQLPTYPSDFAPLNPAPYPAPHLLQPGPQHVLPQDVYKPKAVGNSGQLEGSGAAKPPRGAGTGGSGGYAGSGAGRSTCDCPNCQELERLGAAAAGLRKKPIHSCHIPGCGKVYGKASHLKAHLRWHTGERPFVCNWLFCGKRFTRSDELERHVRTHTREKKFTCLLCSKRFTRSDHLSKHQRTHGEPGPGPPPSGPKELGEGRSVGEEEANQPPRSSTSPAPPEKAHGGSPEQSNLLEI

binding result: binds
B1: GST full-length Dlx3 (natural protein)
chain: not shown
notes: Dlx3, mouse cDNA, full length; also called GST-Dlx3
